Measurements taken from US20180264072A1 (PARIS SCIENCES ET LETTRES QUARTER LATIN, published 2018).

B1: full-length human vinculin (HV) (other)
chain: MPVFHTRTIESILEPVAQQISHLVIMHEEGEVDGKAIPDLTAPVAAVQAAVSNLVRVGKETVQTTEDQILKRDMPPAFIKVENACTKLVQAAQMLQSDPYSVPARDYLIDGSRGILSGTSDLLLTFDEAEVRKIIRVCKGILEYLTVAEVVETMEDLVTYTKNLGPGMTKMAKMIDERQQELTHQEHRVMLVNSMNTVKELLPVLISAMKIFVTTKNSKNQGIEEALKNRNFTVEKMSAEINEIIRVLQLTSWDEDAWASKDTEAMKRALASIDSKLNQAKGWLRDPSASPGDAGEQAIRQILDEAGKVGELCAGKERREILGTCKMLGQMTDQVADLRARGQGSSPVAMQKAQQVSQGLDVLTAKVENAARKLEAMTNSKQSIAKKIDAAQNWLADPNGGPEGEEQIRGALAEARKIAELCDDPKERDDILRSLGEISALTSKLADLRRQGKGDSPEARALAKQVATALQNLQTKTNRAVANSRPAKAAVHLEGKIEQAQRWIDNPTVDDRGVGQAAIRGLVAEGHRLANVMMGPYRQDLLAKCDRVDQLTAQLADLAARGEGESPQARALASQLQDSLKDLKARMQEAMTQEVSDVFSDTTTPIKLLAVAATAPPDAPNREEVFDERAANFENHSGKLGATAEKAAAVGTANKSTVEGIQASVKTARELTPQVVSAARILLRNPGNQAAYEHFETMKNQWIDNVEKMTGLVDEAIDTKSLLDASEEAIKKDLDKCKVAMANIQPQMLVAGATSIARRANRILLVAKREVENSEDPKFREAVKAASDELSKTISPMVMDAKAVAGNISDPGLQKSFLDSGYRILGAVAKVREAFQPQEPDFPPPPPDLEQLRLTDELAPPKPPLPEGEVPPPRPPPPEEKDEEFPEQKAGEVINQPMMMAARQLHDEARKWSSKGNDIIAAAKRMALLMAEMSRLVRGGSGTKRALIQCAKDIAKASDEVTRLAKEVAKQCTDKRIRTNLLQVCERIPTISTQLKILSTVKATMLGRTNISDEESEQATEMLVHNAQNLMQSVKETVREAEAASIKIRTDAGFTLRWVRKTPWYQ
B2: IpaA 524-633 (A524) (other)
chain: KSKDITKSTTEHRINNKLKVTDANIRNYVTETNADTIDKNHAIYEKAKEVSSALSKVLSKIDDTSAELLTDDISDLKNNNDITAENNNIYKAAKDVTTSLSKVLKNINKD
B3: IpaA 483-633 (A483) (other)
chain: GDTYLTRETIFEASKKVTNSLSNLISLIGTKSGTQERELQEKSKDITKSTTEHRINNKLKVTDANIRNYVTETNADTIDKNHAIYEKAKEVSSALSKVLSKIDDTSAELLTDDISDLKNNNDITAENNNIYKAAKDVTTSLSKVLKNINKD
B4: vinculin D1 domain (HVD1) (other)
chain: MPVFHTRTIESILEPVAQQISHLVIMHEEGEVDGKAIPDLTAPVAAVQAAVSNLVRVGKETVQTTEDQILKRDMPPAFIKVENACTKLVQAAQMLQSDPYSVPARDYLIDGSRGILSGTSDLLLTFDEAEVRKIIRVCKGILEYLTVAEVVETMEDLVTYTKNLGPGMTKMAKMIDERQQELTHQEHRVMLVNSMNTVKELLPVLISAMKIFVTTKNSKNQGIEEALKNRNFTVEKMSAEINEIIRVLQLTSWDEDAW
notes: also called D1 domain of vinculin

Columns and labels:
IpaA 483-633 (A483) = biological target: B3; experiment: solid phase (ELISA) assay, A483 coated, HV in solution
IpaA 524-633 (A524) = biological target: B2; experiment: solid phase (ELISA) assay, A524 coated, HV in solution
[1] = biological target: B1; experiment: solid phase (ELISA) assay, HV coated, A524 in solution
[2] = biological target: B4; experiment: solid phase (ELISA) assay, HVD1 coated, A483 in solution
[3] = biological target: B4; experiment: size exclusion chromatography; stoichiometry listed for the complex
[4] = biological target: B1; experiment: solid phase (ELISA) assay, HV coated, A483 in solution
talin H1-H4 = biological target: T1, talin H1-H4; experiment: size exclusion chromatography; stoichiometry listed for the complex
T1 construct: domain: H1-H4; also called TlnH1-H4; T1nH1-H4
T1 sequence (P26039 482-636): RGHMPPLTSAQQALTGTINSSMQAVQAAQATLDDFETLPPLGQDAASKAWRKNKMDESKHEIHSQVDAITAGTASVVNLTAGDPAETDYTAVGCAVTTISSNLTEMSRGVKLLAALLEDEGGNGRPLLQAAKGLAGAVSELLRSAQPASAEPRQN

In the case of B1, the “EC50 (read off the curve)” value (IpaA 483-633 (A483)) is reported as ~5 nM and the “EC50 (read off the curve)” value (IpaA 524-633 (A524)) is reported as ~4 nM.

In the case of B2, the “EC50 (read off the curve)” value [1] is reported as ~0.3 nM.

With B3 the “EC50 (read off the curve)” value [2] was ~0.8 nM, the stoichiometry [3] was 1 molar ratio of the complex (1:1) and the “EC50 (read off the curve)” value [4] was 0.2 to 0.3 nM.

B4 was tested, and the stoichiometry (talin H1-H4) was 1 molar ratio of the complex (1:1).
